In publication PMC6775958 (Pharmacology Research & Perspectives, 2019):
Where “and” joins values, the source holds several entries; their conditions need not be identical. Equal values may be shown once. Read-outs that look alike come from different tables or passages of the source.

What was measured:
[1] = conscious dogs, cited from earlier work; for Bioavailability: pilot experiments
Euglycemic glucose clamp = format: in vivo, swine; conditions: 20 IU RHI
[2] = Pharmacokinetics of RHI in anesthetized swine; format: in vivo; conditions: 20 IU RHI, mean ± SEM; for Cmax (peak serum concentration), Non-transformed / Tmax (time to peak serum concentration): non-compartmental
[3] = Subcutaneous, natural logarithmic scale, n = 9

Substance | Cmax after oral than after subcutaneous administration ([1]; oral ODP vs subcutaneous) | Tmax after oral than after subcutaneous administration ([1]; oral ODP vs subcutaneous) | Bioavailability ([1]; oral delivery by the ODP) [%] | Bioavailability ([1]; subcutaneous injections) [%] | Biological activity of RHI delivered by the ODP (increased demand for glucose delivery to maintain the euglycemic clamp) (Euglycemic glucose clamp; ODP (jejunal wall), anesthetized swine) | Mean AUClast of glucose infusion rates (Euglycemic glucose clamp; Subcutaneous, euglycemic clamp, swine, 0-420 min, mean ± SEM, n = 9) [g/min^2] | Cmax (peak serum concentration), Non-transformed ([2]; Intrajejunal wall (ODP), n = 8) [nM] | Tmax (time to peak serum concentration) ([2]; Intrajejunal wall (ODP), n = 8) | Area under the insulin concentration curve ([2]; ODP (jejunal wall), n = 8 (abstract)) [nmol/L/min] | Area under the insulin concentration curve ([2]; Subcutaneous, n = 9 (abstract)) [nmol/L/min] | AUClast, Log-transformed [2, 3] [pmol/L·min] | Cmax, Log-transformed [2, 3] [pmol/L] | Cmax (peak serum concentration), Non-transformed ([2]; Subcutaneous, n = 9) [nM] | Tmax (time to peak serum concentration) ([2]; Subcutaneous, n = 9)
human immunoglobulin G [human IgG] | higher | shorter | 60 | 50 |  |  |  |  |  |  |  |  |  | 
recombinant human insulin [RHI] |  |  |  |  | confirmed | 106 ± 10 | 0.517 ± 0.109 | 2.32 ± 0.65 h and 2.32 ± 0.7 h | 83 ± 18 | 81 ± 10 | 2178 ± 49 | 5.74 ± 0.17 | 0.342 ± 0.05 | 4 ± 0.517 h and 3.78 ± 0.4 h
